Data on 5 molecules can be found in patent US20200330553A1 (BRIGHAM AND WOMEN S HOSPITAL, published 2020).

B3: FLAG-sortilin full-length (Full) (receptor)
chain: SAPDYKDDDDKGEDEECGRVRDFVAKLANNTHQHVFDDLRGSVSLSWVGDSTGVILVLTTFHVPLVIMTFGQSKLYRSEDYGKNFKDITDLINNTFIRTEFGMAIGPENSGKVVLTAEVSGGSRGGRIFRSSDFAKNFVQTDLPFHPLTQMMYSPQNSDYLLALSTENGLWVSKNFGGKWEEIHKAVCLAKWGSDNTIFFTTYANGSCKADLGALELWRTSDLGKSFKTIGVKIYSFGLGGRFLFASVMADKDTTRRIHVSTDQGDTWSMAQLPSVGQEQFYSILAANDDMVFMHVDEPGDTGFGTIFTSDDRGIVYSKSLDRHLYTTTGGETDFTNVTSLRGVYITSVLSEDNSIQTMITFDQGGRWTHLRKPENSECDATAKNKNECSLHIHASYSISQKLNVPMAPLSEPNAVGIVIAHGSVGDAISVMVPDVYISDDGGYSWTKMLEGPHYYTILDSGGIIVAIEHSSRPINVIKFSTDEGQCWQTYTFTRDPIYFTGLASEPGARSMNISIWGFTESFLTSQWVSYTIDFKDILERNCEEKDYTIWLAHSTDPEDYEDGCILGYKEQFLRLRKSSMCQNGRDYVVTKQPSICLCSLEDFLCDFGYYRPENDSKCVEQPELKGHDLEFCLYGREEHLTTNGYRKIPGDKCQGGVNPVREVKDLKKKCTSNFLSPEKQNSKSNSVPIILAIVGLMLVTVVAGVLIVKKYVCGGRFLVHRYSVLQQHAEANGVDGVDALDTASHTNKSGYHDDSDEDLLE
notes: signal peptide 1-33 is implied by that; Expressed in HEK293 cells; also called FLAG-sortilin WT; FLAG-sortilin wild-type

The target in series [1] is B3. The series is described as follows: TR-FRET and HTRF on HEK293 cells, anti-FLAG(M2)-Cryptate and anti-6HIS-XL665. The protocol:
TR-FRET and HTRF were performed as described (26). FLAG-sortilin Full HEK293 cells were harvested using dissociation solution (e.g., from Sigma Aldrich, Cat#C5914) 24 hours after transfection of 6×His-sortilin expression vector. An incubation under the circle rotator was performed at 4° C. with 1×10^6 cells/mL for TR-FRET and 2×10^6 cells/mL for HTRF containing 1 nmol/L Anti-FLAG® (M2)-Cryptate (Cisbio Bioassays, Cat#61FG2KLA, Lot#25A) and 3 nmol/L Anti-6HIS-XL665 (Cisbio Bioassays, Cat#61HISXLA, Lot#56A) in PBS supplemented with 25% FBS. For TR-FRET, cells were centrifuged at 1,000 rpm for 5 min to remove the antibodies, and resuspended in PBS, and applied into a 96-well white plate. For HTRF, cells were applied without removing the antibodies into a 96-well white plate. Then, the plate was read (excitation: 320 nm, emission: 620 nm (cutoff 570 nm), 665 nm (cutoff 630 nm), Delay […], Integration […]). The FRET signal was calculated as (the ratio of counts per seconds 665:620)×10,000, and % change of the FRET signal by 6×His-sortilin expression was expressed.

Series [2] concerns the molecule itself. Briefly: non-reducing western blot; BS3 cross-linking, HEK293 cells. An excerpt:
In reducing western blotting, protein expressions of FLAG-sortilin Full, ECD+TMD and ICD+TMD were detected as bands of plausible molecular size (FIG. 2B). In non-reducing western blotting where disulfide bonds can be retained, FLAG-sortilin Full and ECD+TMD expressed a couple of bands (FIG. 2C). A band of 75-100 kDa was detected as monomers (FIG. 2C). Bands of approximately 200 kDa and higher molecular weight were detected as homodimers and multimers with intermolecular disulfide bonds (FIG. 2C). Next, FLAG-sortilin Full and ECD+TMD were cross-linked using water-soluble, non-cleavable cross-linker, BS3, in HEK293 cells. Both bands of homodimers and multimers appeared via the cross-linking (FIG. 2D). […] Dimerization of FLAG-sortilin ICD+TMD was not clearly detected in the non-reducing western blotting using whole cell lysate (FIG. 2C) potentially due to low protein expression levels of FLAG-sortilin ICD+TMD (FIGS. 2B, 2C). […] Therefore, it was determined whether FLAG-sortilin ICD+TMD can undergo degradation in proteasome and lysosome by adding proteasome inhibitor, MG-132, and lysosome inhibitor, chloroquine, to FLAG-sortilin ICD+TMD HEK293 cells, respectively. […] In non-reducing western blotting, bands with molecular size approximately twice as high as monomers of FLAG-sortilin ICD+TMD were detected (FIG. 2G). […]
Background: In western blotting, separated proteins are transferred to a membrane and probed.

Series [3] deals with the molecule itself. Briefly: non-reducing western blot, HEK293 cells.

B1: 6×His-sortilin full-length (Full) (receptor)
chain: SAPHHHHHHGEDEECGRVRDFVAKLANNTHQHVFDDLRGSVSLSWVGDSTGVILVLTTFHVPLVIMTFGQSKLYRSEDYGKNFKDITDLINNTFIRTEFGMAIGPENSGKVVLTAEVSGGSRGGRIFRSSDFAKNFVQTDLPFHPLTQMMYSPQNSDYLLALSTENGLWVSKNFGGKWEEIHKAVCLAKWGSDNTIFFTTYANGSCKADLGALELWRTSDLGKSFKTIGVKIYSFGLGGRFLFASVMADKDTTRRIHVSTDQGDTWSMAQLPSVGQEQFYSILAANDDMVFMHVDEPGDTGFGTIFTSDDRGIVYSKSLDRHLYTTTGGETDFTNVTSLRGVYITSVLSEDNSIQTMITFDQGGRWTHLRKPENSECDATAKNKNECSLHIHASYSISQKLNVPMAPLSEPNAVGIVIAHGSVGDAISVMVPDVYISDDGGYSWTKMLEGPHYYTILDSGGIIVAIEHSSRPINVIKFSTDEGQCWQTYTFTRDPIYFTGLASEPGARSMNISIWGFTESFLTSQWVSYTIDFKDILERNCEEKDYTIWLAHSTDPEDYEDGCILGYKEQFLRLRKSSMCQNGRDYVVTKQPSICLCSLEDFLCDFGYYRPENDSKCVEQPELKGHDLEFCLYGREEHLTTNGYRKIPGDKCQGGVNPVREVKDLKKKCTSNFLSPEKQNSKSNSVPIILAIVGLMLVTVVAGVLIVKKYVCGGRFLVHRYSVLQQHAEANGVDGVDALDTASHTNKSGYHDDSDEDLLE
notes: 6×His inserted after Ser78-Ala79-Pro80; Written as the form after propeptide cleavage; also called 6×His-sortilin WT; 6×His-sortilin wild-type
Turning to B1, the binding result in series [1] is recorded as “binds”.

B2: FLAG-sortilin ECD+TMD (receptor)
chain: SAPDYKDDDDKGEDEECGRVRDFVAKLANNTHQHVFDDLRGSVSLSWVGDSTGVILVLTTFHVPLVIMTFGQSKLYRSEDYGKNFKDITDLINNTFIRTEFGMAIGPENSGKVVLTAEVSGGSRGGRIFRSSDFAKNFVQTDLPFHPLTQMMYSPQNSDYLLALSTENGLWVSKNFGGKWEEIHKAVCLAKWGSDNTIFFTTYANGSCKADLGALELWRTSDLGKSFKTIGVKIYSFGLGGRFLFASVMADKDTTRRIHVSTDQGDTWSMAQLPSVGQEQFYSILAANDDMVFMHVDEPGDTGFGTIFTSDDRGIVYSKSLDRHLYTTTGGETDFTNVTSLRGVYITSVLSEDNSIQTMITFDQGGRWTHLRKPENSECDATAKNKNECSLHIHASYSISQKLNVPMAPLSEPNAVGIVIAHGSVGDAISVMVPDVYISDDGGYSWTKMLEGPHYYTILDSGGIIVAIEHSSRPINVIKFSTDEGQCWQTYTFTRDPIYFTGLASEPGARSMNISIWGFTESFLTSQWVSYTIDFKDILERNCEEKDYTIWLAHSTDPEDYEDGCILGYKEQFLRLRKSSMCQNGRDYVVTKQPSICLCSLEDFLCDFGYYRPENDSKCVEQPELKGHDLEFCLYGREEHLTTNGYRKIPGDKCQGGVNPVREVKDLKKKCTSNFLSPEKQNSKSNSVPIILAIVGLMLVTVVAGVLIV
notes: written as the form after propeptide cleavage; also called FLAG-sortilin ECD plus transmembrane domain
For B2, in series [2], the binding result is given as “binds”.

Turning to B3, the binding result in series [2] is “binds”.

B4: FLAG-sortilin S316E (receptor)
chain: SAPDYKDDDDKGEDEECGRVRDFVAKLANNTHQHVFDDLRGSVSLSWVGDSTGVILVLTTFHVPLVIMTFGQSKLYRSEDYGKNFKDITDLINNTFIRTEFGMAIGPENSGKVVLTAEVSGGSRGGRIFRSSDFAKNFVQTDLPFHPLTQMMYSPQNSDYLLALSTENGLWVSKNFGGKWEEIHKAVCLAKWGSDNTIFFTTYANGSCKADLGALELWRTSDLGKSFKTIGVKIYSFGLGGRFLFAEVMADKDTTRRIHVSTDQGDTWSMAQLPSVGQEQFYSILAANDDMVFMHVDEPGDTGFGTIFTSDDRGIVYSKSLDRHLYTTTGGETDFTNVTSLRGVYITSVLSEDNSIQTMITFDQGGRWTHLRKPENSECDATAKNKNECSLHIHASYSISQKLNVPMAPLSEPNAVGIVIAHGSVGDAISVMVPDVYISDDGGYSWTKMLEGPHYYTILDSGGIIVAIEHSSRPINVIKFSTDEGQCWQTYTFTRDPIYFTGLASEPGARSMNISIWGFTESFLTSQWVSYTIDFKDILERNCEEKDYTIWLAHSTDPEDYEDGCILGYKEQFLRLRKSSMCQNGRDYVVTKQPSICLCSLEDFLCDFGYYRPENDSKCVEQPELKGHDLEFCLYGREEHLTTNGYRKIPGDKCQGGVNPVREVKDLKKKCTSNFLSPEKQNSKSNSVPIILAIVGLMLVTVVAGVLIVKKYVCGGRFLVHRYSVLQQHAEANGVDGVDALDTASHTNKSGYHDDSDEDLLE
For B4, in series [3], the binding result is “binds”.

B5: 6×His-sortilin ICD+TMD C783A (receptor)
chain: SAPHHHHHHNSVPIILAIVGLMLVTVVAGVLIVKKYVAGGRFLVHRYSVLQQHAEANGVDGVDALDTASHTNKSGYHDDSDEDLLE
For B5, in series [3], the binding result is reported as “no binding”.
